For this test, the target named is retromer–SNX3 complex (VPS26A, VPS35-VPS29 fusion, SNX3) (human) (UniProt Q96QK1).

For three molecules, proportion of liposomes tubulated (cryo-EM; liposomes with retromer, SNX3 and the peptide lacking the motif), mean tube length per liposome (liposome tubulation with retromer and SNX3) and proportion of liposomes tubulated (cryo-EM; 2.5 uM retromer, 8.75 uM SNX3, 25 uM peptide, 600 uM liposomes, overnight results are on record in publication PMC13483459.

Take KRQKGKPKRKSK [AAVR cytosolic tail peptide lacking the predicted sorting signal (residues 956-967)]: the proportion of liposomes tubulated (cryo-EM; liposomes with retromer, SNX3 and the peptide lacking the motif) is 0%.

Molecule KRQKGKPKRKSKYKILDAT [AAVR cytosolic tail peptide (residues 956-974)] came in with a mean tube length per liposome (liposome tubulation with retromer and SNX3) of 503 nm; a proportion of liposomes tubulated (cryo-EM; 2.5 uM retromer, 8.75 uM SNX3, 25 uM peptide, 600 uM liposomes, overnight at 4°C; n = 3) of 3.54%.

Regarding AQPELYLLNTMDADSLVSR [DMT1-II cargo peptide (residues 550-568)], the mean tube length per liposome (liposome tubulation with retromer and SNX3) is 568 nm; the proportion of liposomes tubulated (cryo-EM; 2.5 uM retromer, 8.75 uM SNX3, 25 uM peptide, 600 uM liposomes, overnight at 4°C; n = 3) stood at 4.15%.
